Assay [1] has as its target complement C5 (human (endogenous in serum)) (UniProt P01031). In words: SPR. In general terms: In SPR one partner is held on a chip, and binding of the other changes the refractive index at the surface.
Assay [2] addresses complement C5 (human (endogenous in serum), UniProt P01031 19-673; P01031 678-1676). Description: SEC-MALS; 100 uL at 1 mg/mL on S200 10/300 in PBS; C5-OmCI with RaCI and EcuFab, with or without CirpT1 (2-fold molar excess, excess removed by SEC). The conditions noted are these: both partners purified.

Experimental findings from publication PMC6955305, “An inhibitor of complement C5 provides structural insights into activation” (Proceedings of the National Academy of Sciences of the …, 2019) are described below.

Sequence of complement C5 (P01031 19-673, chain 1 of 2): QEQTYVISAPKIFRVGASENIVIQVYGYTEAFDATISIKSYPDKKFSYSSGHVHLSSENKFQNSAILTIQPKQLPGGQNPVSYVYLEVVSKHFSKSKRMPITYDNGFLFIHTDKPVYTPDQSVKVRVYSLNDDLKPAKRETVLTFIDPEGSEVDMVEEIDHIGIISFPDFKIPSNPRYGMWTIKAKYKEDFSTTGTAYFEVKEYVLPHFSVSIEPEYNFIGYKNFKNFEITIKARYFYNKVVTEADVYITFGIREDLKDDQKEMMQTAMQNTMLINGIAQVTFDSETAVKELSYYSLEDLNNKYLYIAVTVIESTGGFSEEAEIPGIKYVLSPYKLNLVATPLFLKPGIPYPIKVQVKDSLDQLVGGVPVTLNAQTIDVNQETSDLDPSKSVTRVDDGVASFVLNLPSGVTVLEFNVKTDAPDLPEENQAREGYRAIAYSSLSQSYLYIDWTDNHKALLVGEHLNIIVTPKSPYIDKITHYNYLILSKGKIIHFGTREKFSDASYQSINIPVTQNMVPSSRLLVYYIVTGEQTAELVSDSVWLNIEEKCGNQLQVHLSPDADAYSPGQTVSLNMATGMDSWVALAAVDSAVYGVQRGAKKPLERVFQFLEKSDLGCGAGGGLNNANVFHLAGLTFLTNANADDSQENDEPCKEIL
Sequence of complement C5 (P01031 678-1676, chain 2 of 2): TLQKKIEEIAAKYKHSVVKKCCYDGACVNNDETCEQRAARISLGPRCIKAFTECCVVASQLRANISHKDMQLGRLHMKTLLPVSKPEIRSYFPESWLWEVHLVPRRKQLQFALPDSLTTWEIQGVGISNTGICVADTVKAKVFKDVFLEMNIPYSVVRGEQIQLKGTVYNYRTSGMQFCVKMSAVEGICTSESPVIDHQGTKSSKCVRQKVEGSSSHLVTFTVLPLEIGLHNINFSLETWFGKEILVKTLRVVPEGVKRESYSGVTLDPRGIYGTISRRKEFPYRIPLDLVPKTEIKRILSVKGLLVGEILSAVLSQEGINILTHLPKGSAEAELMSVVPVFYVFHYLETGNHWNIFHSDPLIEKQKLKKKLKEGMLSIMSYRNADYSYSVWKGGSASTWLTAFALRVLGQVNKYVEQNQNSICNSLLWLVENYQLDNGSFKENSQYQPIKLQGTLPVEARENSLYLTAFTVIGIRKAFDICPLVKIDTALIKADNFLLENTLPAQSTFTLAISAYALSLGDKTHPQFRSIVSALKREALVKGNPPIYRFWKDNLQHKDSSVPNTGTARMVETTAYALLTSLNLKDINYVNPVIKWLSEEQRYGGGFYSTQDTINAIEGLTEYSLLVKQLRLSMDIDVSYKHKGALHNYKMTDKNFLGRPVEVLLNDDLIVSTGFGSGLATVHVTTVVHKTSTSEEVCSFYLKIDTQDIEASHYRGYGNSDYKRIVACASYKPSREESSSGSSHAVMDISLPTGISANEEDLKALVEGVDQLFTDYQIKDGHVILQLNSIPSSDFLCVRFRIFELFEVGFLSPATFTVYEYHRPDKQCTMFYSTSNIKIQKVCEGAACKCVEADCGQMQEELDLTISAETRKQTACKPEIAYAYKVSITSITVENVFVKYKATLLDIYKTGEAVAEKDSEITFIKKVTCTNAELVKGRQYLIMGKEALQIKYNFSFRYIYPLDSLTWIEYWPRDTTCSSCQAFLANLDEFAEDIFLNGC
Sequence of complement C5 (human (endogenous in serum)) (P01031 19-673, chain 1 of 2): as the sequence (P01031 19-673, chain 1 of 2) above
Sequence of complement C5 (human (endogenous in serum)) (P01031 678-1676, chain 2 of 2): as the sequence (P01031 678-1676, chain 2 of 2) above

As usually defined, the Kd is the constant that tells how readily two partners part at equilibrium. Low values mean tighter binding, high ones weaker binding. “CirpT1 (complement inhibitor from Rhipicephalus pulchellus of the terminal pathway, family member 1) (natural protein)” showed a Kd in assay [1] of 10 nM.

B1: OmCI (natural protein)
chain: DSESDCTGSEPVDAFQAFSEGKEAYVLVRSTDPKARDCLKGEPAGEKQDNTLPVMMTFKNGTDWASTDWTFTLDGAKVTATLGNLTQNREVVYDSQSHHCHVDKVEKEVPDYEMWMLDAGGLEVEVECCRQKLEELASGRNQMYPHLKDC
notes: also called Coversin
In the case of B1, the binding result in assay [2] is listed as “binds”.
